Measurements taken from patent publication US20200368363A1 (MAGENTA THEERAPEUTICS, published 2020).

T1: human CD2 on cells (MOLT-4 human T lymphoblast cells; primary human T-cells; primary human NK cells) (human, UniProt P06729 25-351)
T1 sequence: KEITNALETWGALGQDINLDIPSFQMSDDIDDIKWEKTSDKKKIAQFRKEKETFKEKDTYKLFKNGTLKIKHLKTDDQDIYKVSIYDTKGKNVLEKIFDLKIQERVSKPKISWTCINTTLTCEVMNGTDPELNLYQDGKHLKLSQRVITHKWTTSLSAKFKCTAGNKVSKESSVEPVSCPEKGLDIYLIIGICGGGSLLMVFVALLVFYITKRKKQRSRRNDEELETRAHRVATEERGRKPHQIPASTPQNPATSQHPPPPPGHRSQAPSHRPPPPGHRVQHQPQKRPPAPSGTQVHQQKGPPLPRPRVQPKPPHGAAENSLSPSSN

B1: anti-CD2-amanitin ADC (RPA-2.10-AM), interchain, average drug-to-antibody ratio 6 (antibody, V domains shown)
VH: EVKLVESGGGLVKPGGSLKLSCAASGFTFSSYDMSWVRQTPEKRLEWVASISGGGFLYYLDSVKGRFTISRDNARNILYLHMTSLRSEDTAMYYCARSSYGEIMDYWGQGTSVTVSS
VL: DILLTQSPAILSVSPGERVSFSCRASQRIGTSIHWYQQRTTGSPRLLIKYASESISGIPSRFSGSGSGTDFTLSINSVESEDVADYYCQQSHGWPFTFGGGTKLEIER

Columns and labels:
[1] = target: human CD2 on cells (MOLT-4 human T lymphoblast cells; primary human T-cells; primary human NK cells) (human) (UniProt P06729); experiment: flow cytometry on MOLT-4 cells, anti-mouse AF488 secondary, 4 C
[2] = target: T1, human CD2 on cells (MOLT-4 human T …); experiment: cell-based or functional assay

Row | Molecule | EC50 [1] [nM] | NK cell viability (CellTiter-Glo), in vitro NK-cell killing assay, IC50 [2] [nM]
1 | TS1/8 (antibody) | 0.125 | 
2 | B1 |  | 0.0052
